Experimental data taken from US20250270343A1 (Alector, published 2025).
Positions count from the first letter of the chain named.

B1: anti-GPNMB antibody GPN-24 (antibody, human IgG1, V domains shown)
VH: QVQLQQPGAELVKPGASVKMSCKASGYTFTSYWITWVKQRPGQGLEWIGDIHPGSGRSNYNEKFKNKATLNVDTSSSTVYMQLSSLTSEDSAVYYCARDYLFAYWGQGTLVTVSA
VL: DIQMTQSPSSLSASLGERVSLTCRASQEISGYLSWLQQKPDGTIKRLIYSTSTLDSGVPKRFSGSRSGSDYSLTISSLESEDFADYYCLQYTSSPPTFGGGTKLEIK
notes: chimeric
B2: anti-GPNMB antibody GPN-26 (antibody, human IgG1, V domains shown)
VH: EVQLQQSGPELVKPGASVKISCKASGYSFTGYYMNWVRQSPEKSLEWIGEINPSTGITTYNQKFKAKATLTVDKSSNTAFMQLKSLTSEDSAVYYCARPASWFDYWGQGTLVTVSA
VL: B1 VL with Y32H, S50A, T51A, T92A, S94Y, P96Y
notes: chimeric
B3: anti-GPNMB antibody GPN-22 (antibody, human IgG1, V domains shown)
VH: QVQLQQPGAERVKPGASVKMSCKASGYTFTSYWITWVKQRPGQGLEWIGDIFPGSGSTNYHEKFKSKATLTVDTSSSTAYMQLSSLTSEDSAVYYCSRGYFGSSFSDYWGQGTSVTVSS
VL: B1 VL with A25T, T92A, G100S
notes: chimeric
B4: anti-GPNMB antibody GPN-25 (antibody, human IgG1, V domains shown)
VH: B2 VH with R38K, S54G, T55S, N77S, F80Y, M81L, D104A
VL: B1 VL with L21F, T22I, Y32H, S50A, T51A, T92A, S94Y, P96Y
notes: chimeric
B5: anti-GPNMB antibody GPN-31 (antibody, human IgG1, V domains shown)
VH: B2 VH with R38K, S44N, S54N, I57G, N77T, F80Y, A97T
VL: B1 VL with Y32H, S50A, T51A, S65R, T92A, S94Y, P96Y, E105A
notes: chimeric
B6: anti-GPNMB antibody GPN-41 (antibody, human IgG1, V domains shown)
VH: QLQLQQSGTEVVKPGASVKIPCKASGYAFSSYWMNWVKQRPGKGLEWIGQIYPGDGDTNDNGKFEGKATLTVDKSSNTAYIQLSSLTSEDSAVYFCARSPLHLRGSMDYWGQGTSVTVSS
VL: SIVMTQTPKFLLVSAGDRVTITCKASQSVSNDVAWFQQKPGQSPELLIYSASNRYTGVPDRFTASGYGTDFTFTISAVQAEDLAVYFCQQNYYSPFTFGGGTRLEIK
notes: chimeric
B7: anti-GPNMB antibody GPN-65 (antibody, human IgG1, V domains shown)
VH: B6 VH
VL: B6 VL with A64G, A77T
notes: chimeric
B8: anti-GPNMB antibody GPN-52 (antibody, human IgG1, V domains shown)
VH: DVQLQESGPGLVKPSQTVFLTCTVTGISITTGNYRWSWIRQFPGNKLEWIGYIYYSGTITYNPSLTSRITITRDTPKNEFFLEMNSLTAEDTATYYCARDLTHWYFDVWGTGTTVTVSS
VL: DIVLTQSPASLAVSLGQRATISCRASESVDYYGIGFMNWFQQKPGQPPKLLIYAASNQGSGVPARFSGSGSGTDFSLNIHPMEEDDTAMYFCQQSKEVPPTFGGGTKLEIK
notes: chimeric
B9: anti-GPNMB antibody GPN-35 (antibody, human IgG1, V domains shown)
VH: EVQLVESGGGSVRPGRSLKLSCAAAGFTFSDYYMTWVRQAPTKGLEWVASINHDGGGTYYRDSVKGRFTISRDNARSSLYLQMDSLRSEDTGTYYCTTRAGWHWGQGVMVTVSS
VL: DIQMTQSPASLSASLGETVSIECLASEDIYNYLTWYQQKPGKSPQVLIYSASGLQDGVPSRFSGSGSGRQYSLKINGLESEDAATYFCLQDSEYPLTFGSGTKLEIK
notes: chimeric
B10: anti-GPNMB antibody GPN-11 (antibody, human IgG1, V domains shown)
VH: QVQLQQPGAELVKPGASVKLSCKASGYTFTSYWMHWVKQRPGQGLEWIGEINSSNGRTNYNEKFKTKATLTVDRSSSTAYMQLSSLTSEDSAVYYCARLGYYSGSPYPYYAMDCWGQGTSVTVSS
VL: DIQMTQSPASLSVSVGETVTITCRASENIYSNLAWYQQKQGKSPQLLVYAATNLADGVPSRFSGSGSGTQYSLKINSLQSEDFGSYYCQHFWNTPPTFGGGTKLEIK
notes: chimeric
B11: anti-GPNMB antibody GPN-43 (antibody, human IgG1, V domains shown)
VH: EVQLQQSGPELVKPGASVKISCKASGYTFTDYYMNWVRQSHGKSLEWIGDINPYHGGSTYNQKIKVKATLTVDKSSSTAYMELRSLTSEDSAVYYCARNWPYFDYWGQGTTLTVSS
VL: DIQMTQSPASLSASVGETVTITCRASENIYSFLVWYQQKQGKSPQLLVYNAKTLAEGVPSRFSGSGSGTQFSLKISSLQPEDFGSYYCQHHFGTPPYTFGGGTKLEIK
notes: chimeric
B12: anti-GPNMB antibody GPN-38 (antibody, human IgG1, V domains shown)
VH: QVQLQQPGAELVRPGTSVRLSCKASGYTFTSYWIHWVKQRPGRGLEWIGVIDPSDSYTNYNQQFNVKATLTVDTSSSAAYMQLSSLTSEDSAVYYCARGLITAVNWYFDVWGTGTTVTVSS
VL: DIQMTQSPASLSTSVGEIVTITCRASENIYSYLTWYQQKQGKSPQLLVYNAKTLAEGVPSRFSGSGSGTQFSLKINSLQPEDFGTYYCQHHYGTPLTFGSGTKLEIK
notes: chimeric
B13: anti-GPNMB antibody GPN-37 (antibody, human IgG1, V domains shown)
VH: EVQLVESGGGLVQPGRSLKLSCAASGFTFSSKSGMAWVRQAPTKGLEWVASISNGGGDTYYRDSVKGRFTISRDNAKNTQYLQMDSLRPEDTATYYCARHRDYGYDAYFDYWGQGVMVTVSS
VL: DIQMTQSPASLSASLGETVTIECLASEDIYSSLAWYQQKPGKSPQLLIYDASSLQDGVPSRFSGSESGTQYSLEINSLQSEDAATYFCQQHHDYPYTFGAGTKLELK
notes: chimeric
B14: anti-GPNMB antibody GPN-01 (antibody, human IgG1, V domains shown)
VH: QVQLQQSGAELAKPGASVKLSCKASGYNFTNYCIHWVKQRPGQGLEWIGYINPSTGYTEYNQKFKDKATLTADKSSTTAYMQLSSLTSEDSAVYYCARGRYDEFTYWGQGTLVTVSA
VL: DIVLTQSPASLAVSLGQRATISCRASKSVSTSTYSYMHWYQQKPGQPPKLLIYLASNLESGVPARFSGSGSGTDFTLNIHPVEEEDAATYYCQHSRELPPTFGGGTKLEIK
notes: chimeric
B15: anti-GPNMB antibody GPN-42 (antibody, human IgG1, V domains shown)
VH: DVKLVESGEDLVKPGGSLKLSCAASGFTFSSYAMSWVRQTPEKRLEWVAYISSGGDYIYYADTVKGRFTISRDNARNTLYLQMSSLKSEDTAMYYCTRDRYYDYDVRDYYTMDYWGQGTSVTVSS
VL: DVMMTQTPLSLPVSLGDQASISCRSSQSLVHSNGNTYLHWFLQKPGQSPKLLIFRVSNRFSGVPDRFSGRGSGTDFTLKISRVEAEDLGVYFCSQTTHVPRTFGGGTTLEIK
notes: chimeric
B16: anti-GPNMB antibody GPN-61 (antibody, human IgG1, V domains shown)
VH: B8 VH with I69T, E79Q, N85S, Y96F, T102R
VL: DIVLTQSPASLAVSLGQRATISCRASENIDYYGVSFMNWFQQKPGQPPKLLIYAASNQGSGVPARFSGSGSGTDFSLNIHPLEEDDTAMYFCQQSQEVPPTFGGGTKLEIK
notes: chimeric

Each binder was assayed against T1, mouse GPNMB endogenously expressed on B16F10 cells (mouse, UniProt Q99P91 23-574) (assay: FACS, B16F10 cells).
T1 construct: whole, on cells; also called moGPNMB
T1 sequence (looked up): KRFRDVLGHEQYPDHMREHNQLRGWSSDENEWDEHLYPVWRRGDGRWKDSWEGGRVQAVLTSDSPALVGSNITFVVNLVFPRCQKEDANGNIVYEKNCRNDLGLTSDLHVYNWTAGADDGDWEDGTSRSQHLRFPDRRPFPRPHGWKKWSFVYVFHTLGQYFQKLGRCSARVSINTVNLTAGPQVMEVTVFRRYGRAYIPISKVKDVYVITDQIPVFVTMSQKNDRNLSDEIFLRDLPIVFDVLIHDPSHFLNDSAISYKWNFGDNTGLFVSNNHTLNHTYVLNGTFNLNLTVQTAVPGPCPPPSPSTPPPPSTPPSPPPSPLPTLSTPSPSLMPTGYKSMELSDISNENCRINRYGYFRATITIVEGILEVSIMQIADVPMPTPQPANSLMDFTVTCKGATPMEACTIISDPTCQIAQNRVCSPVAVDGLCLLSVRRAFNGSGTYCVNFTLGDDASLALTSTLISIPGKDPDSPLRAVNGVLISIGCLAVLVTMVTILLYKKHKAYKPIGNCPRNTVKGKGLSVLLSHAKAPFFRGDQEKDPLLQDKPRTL
Procedure: (§1) Recombinant anti-GPNMB antibodies of the present disclosure were examined for their ability to bind human and/or mouse GPNMB expressed on Freestyle293-huGPNMB+ or B16F10 cells, respectively. B16F10 cells are a murine melanoma cell line from a C57BL/6J mouse that endogenously express high levels of mouse GPNMB. The antibodies were also tested for their ability to bind to a human macrophage cell line (U937 cells) engineered to express human GPNMB. Cells were harvested, plated at 100,000 cells/well in a 96-well round bottom plate, and incubated in 100 μl FACS buffer (PBS containing 2% FBS, 2 mM EDTA) containing anti-GPNMB monoclonal antibodies of the present disclosure for 30 minutes on ice. Cells were then washed and incubated in 100 ul FACS buffer containing 1 μg/ml APC-conjugated anti-human IgG secondary antibody for 30 minutes in ice. Cells were washed twice in cold FACS buffer and acquired on a BD FACS Canto. Data analysis and calculation of MFI values was performed with FlowJo (TreeStar) software version 10.0.7. […]
For B1, the “MFI fold over background” value was 1 fold.
B2 was tested, and the “MFI fold over background” value was 1 fold.
For B3, the “MFI fold over background” value was 1 fold.
With B4 the “MFI fold over background” value was 1 fold.
With B5 the “MFI fold over background” value was 1 fold.
For B6, the “MFI fold over background” value was 15 fold.
B7 was tested, and the “MFI fold over background” value was 6.9 fold.
In the case of B8, the “MFI fold over background” value is reported as 3.4 fold.
In the case of B9, the “MFI fold over background” value is reported as 15.4 fold.
In the case of B10, the “MFI fold over background” value is reported as 1 fold.
For B11, the “MFI fold over background” value was 1.6 fold.
For B12, the “MFI fold over background” value was 5.1 fold.
For B13, the “MFI fold over background” value was 0.8 fold.
With B14 the “MFI fold over background” value was 1 fold.
B15 was tested, and the “MFI fold over background” value was 2.6 fold.

Target: T2, soluble cynomolgus GPNMB (recombinant extracellular domain) (cynomolgus, UniProt Q14956 23-499 (human entry), limits assumed)
T2 chain: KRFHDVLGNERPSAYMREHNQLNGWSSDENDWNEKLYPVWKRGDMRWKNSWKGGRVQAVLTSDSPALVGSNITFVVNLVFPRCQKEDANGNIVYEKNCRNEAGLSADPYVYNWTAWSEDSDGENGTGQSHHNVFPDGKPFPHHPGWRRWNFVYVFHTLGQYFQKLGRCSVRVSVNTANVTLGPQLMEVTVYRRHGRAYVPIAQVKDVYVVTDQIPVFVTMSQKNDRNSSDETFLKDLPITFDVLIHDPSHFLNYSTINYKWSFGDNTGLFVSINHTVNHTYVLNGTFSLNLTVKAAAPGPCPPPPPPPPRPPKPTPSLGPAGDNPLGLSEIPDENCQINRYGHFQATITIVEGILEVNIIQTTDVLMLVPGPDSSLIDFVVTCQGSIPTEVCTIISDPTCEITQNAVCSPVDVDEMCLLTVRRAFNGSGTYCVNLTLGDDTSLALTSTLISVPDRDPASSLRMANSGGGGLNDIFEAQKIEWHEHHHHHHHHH
Experiment: SPR Carterra, Ab immobilized
Method in brief: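 Antibodies amine-coupled on HC200M chip in a 96-spot array; recombinant GPNMB ECD analytes injected at 2.5–600 nM, lowest to highest, without regeneration. Running buffer HBS-EP+ with 0.5 mg/ml BSA; two buffer blanks between species series. Kinetics fitted to yield affinity estimates.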
Work on B1 yielded a Kd of 8.3 nM, a koff of 0.00061 s⁻¹ and a kon of 77000 M⁻¹ s⁻¹.
B2 was tested, and the Kd was 8.9 nM, the koff was 0.00027 s⁻¹ and the kon was 31000 M⁻¹ s⁻¹.
B3 showed a Kd of 104 nM, a koff of 0.0033 s⁻¹ and a kon of 32000 M⁻¹ s⁻¹.
With B4 the Kd was 7.4 nM, the koff was 0.0002 s⁻¹ and the kon was 30000 M⁻¹ s⁻¹.
Binder B5 has a Kd of 11.2 nM, a koff of 0.00036 s⁻¹ and a kon of 32000 M⁻¹ s⁻¹.
B8 gave a Kd of 40.1 nM, a koff of 0.0036 s⁻¹ and a kon of 90000 M⁻¹ s⁻¹.
For B16, the Kd was 47.9 nM, the koff was 0.0041 s⁻¹ and the kon was 86000 M⁻¹ s⁻¹.
In the case of B10, the Kd is reported as 12.1 nM, the koff is reported as 0.00095 s⁻¹ and the kon is reported as 83000 M⁻¹ s⁻¹.
With B14 the Kd was 31 nM, the koff was 0.0034 s⁻¹ and the kon was 110000 M⁻¹ s⁻¹.

These binders were tested against T1, mouse GPNMB endogenously expressed on … (assay: FACS on B16F10 mouse melanoma cells (endogenous mouse GPNMB); single antibody concentration (not given); APC anti-human IgG secondary; MFI as fold over background).
Procedure: as §1
B1: no binding.
B2: no binding.
B3: no binding.
B4: no binding.
B5: no binding.
B10: no binding.
B13: no binding.
B14: no binding.
